Assay results taken from patent publication US20190298824A1, “ALBUMIN-BINDING IMMUNOMODULATORY COMPOSITIONS AND METHODS OF USE THEREOF” (THE UNITED STATES OF AMERICA, as represented by the …, priority 2016, published 2019).
Read-outs that look alike come from different tables or passages of the source. Where no end group is shown, it is not given here.

Assays:
albumin [1] = experiment: method not named; recovery of MEB fluorescence on albumin binding (FIG. 21C)
Target sequence in this assay (P02768 25-609): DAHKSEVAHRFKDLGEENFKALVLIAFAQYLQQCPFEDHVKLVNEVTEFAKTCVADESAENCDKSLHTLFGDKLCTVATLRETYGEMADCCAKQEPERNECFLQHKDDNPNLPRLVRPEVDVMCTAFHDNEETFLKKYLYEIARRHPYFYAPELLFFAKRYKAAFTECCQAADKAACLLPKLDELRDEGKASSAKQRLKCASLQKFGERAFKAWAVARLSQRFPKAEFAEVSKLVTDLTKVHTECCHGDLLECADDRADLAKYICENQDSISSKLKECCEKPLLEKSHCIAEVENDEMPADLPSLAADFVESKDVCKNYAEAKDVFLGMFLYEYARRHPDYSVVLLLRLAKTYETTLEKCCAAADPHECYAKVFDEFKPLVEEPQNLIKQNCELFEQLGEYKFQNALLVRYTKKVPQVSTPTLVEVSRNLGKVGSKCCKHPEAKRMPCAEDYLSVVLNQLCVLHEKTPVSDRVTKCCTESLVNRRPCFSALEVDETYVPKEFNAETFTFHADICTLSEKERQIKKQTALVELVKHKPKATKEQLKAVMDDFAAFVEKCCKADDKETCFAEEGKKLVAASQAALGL

[2] = water solubility of MEB-peptide conjugates; format: physicochemical
Text: (§1) Tyrosinase-related protein 2 (Trp2), a melanoma-associated subunit Ag, was used in this study. Trp2 with an N-terminal cysteine was conjugated with MEB to prepare albumin-binding MEB-Trp2 (denoted as AlbiTrp2). Hydrophilic MEB increased the water solubility of AlbiTrp2 relative to Trp2, and the resulting amphiphilic AlbiTrp2 self-assembled into nanoparticles in aqueous solution (FIG. 21A, 21B). […] To study LN-targeted Trp2 delivery, ^64Cu-labeled AlbiTrp2 was s.c. injected at the tail base of FVB mice for PET imaging (FIG. 22A).
(§2) Encouraged by the efficient delivery of peptide antigen, AlbiVax-based neoantigen delivery was exploited for personalized tumor immunotherapy. Adpgk, a neoantigen [ASMTN(R→M)ELM] (SEQ ID NO: 86) in MC38 (colon cancer) tumor cells^7 was used. The conjugation of hydrophilic MEB improved the water solubility of MEB-Adpgk (denoted as AlbiAdpgk).

albumin [3] = experiment: albumin binding of AlbiTrp2; conditions: R^2=0.88
Text: FIG. 21A-21C. TEM (A) and AFM (B) images of albumin/AlbiTrp2 nanocomplexes. The length-height graph in (B) was shown for the marked crossline in AFM image. (C) Albumin binding of AlbiTrp2 recovered the MEB fluorescence.
as §1

[4] = PET imaging of 64Cu-labeled AlbiTrp2 LN delivery; format: in vivo, FVB mice; conditions: within 3 days
Text: FIG. 22A-22B. […] White arrows mark LNs.
as §1

[5] = PET imaging of vaccine uptake in LNs of B16F10 tumor-bearing mice; format: in vivo, C57BL/6 mice
Text: FIG. 23A-23D. Representative PET images (A) and the corresponding quantification (B) showing the uptake of AlbiCpG (MEB-(HEG)2-CpG) in draining IN LNs and AX LNs of B16F10 tumor-bearing C57BL/6 mice. […] (C-D) Representative PET images (c) and the corresponding quantification (D) showing the uptake of AlbiTrp2 in LNs (IN and AX) of B16F10 tumor-bearing C57BL/6 mice. (Coro: coronal; trans: transverse; proj: projection; ID: injection dose; ID/g: ID/gram of organ weight)
For immunotherapy, C57BL/6 mice s.c. inoculated with 3×10^5 B16F10 cells were treated with AlbiCpG (2 nmole CpG equivalents)+AlbiTrp2 (20 μg) on days 6, 12, and 18 post inoculation. […] Furthermore, using a combination of multiple synergistic therapeutics can be used.

[6] = PET imaging of 64Cu-labeled AlbiAdpgk LN delivery; format: in vivo, FVB mice
Method: FIG. 25A-25D. Representative coronal and transverse of PET images (A) at 6 h post injection and quantification (B) of AlbiAdpgk, free Adpgk, and IFA(Adpgk) in IN and AX LNs of FVB mice (n=4/group). White arrows mark the LNs. (C) Quantified biodistribution of ^64Cu-labeled AlbiAdpgk in organs by γ-counting of excised organs at 48 h post injection. (D) % ID at injection sites quantified from decay-corrected PET scans.
as §2

[7] = test system: BMDCs and RAW264.7 macrophages; experiment: ELISA of proinflammatory factors in culture medium (in vitro immunostimulation); format: cell-based
[8] = design: species or system BALB/c mice; conditions: mouse, in vivo
Text: FIGS. 8A-8E. Biodistribution and LN retention of CpG on day3 and day5, as determined by ROI signal quantification of PET images and γ-counting of isolated organs. (A) PET quantification of the % ID of different forms of CpG in major organs on Day3. (B) Detailed PET quantification of the % ID of different forms of CpG in IN and AX LNs on Day3. (C) γ-counting quantification of the % ID/g of different forms of CpG in LNs on Day3. (D) γ-counting quantification of the % ID/g of different forms of CpG in major organs on Day5. (E) γ-counting quantification of the % ID/g of different forms of CpG in LNs on Day5. Due to signal decay over 5 days, the radioactivity was too low to be detected by PET on day5, so the % injection dose on Day5 was not determined by PET. ID: injection dose; ID/g: injection dose/gram of tissue.
The blood had less than 4% ID/g for all tested formulations. On day 5 post injection, even though the radioactivity of ^64Cu-labeled vaccines was too low to be sensitively detected by PET, the radioactivity of ex vivo organs were sensitively measured to determine the biodistribution profile (FIGS. 8D-8E).

[9] = mouse, in vivo, sc
Method: (A) Structures, formulations, and radiolabeling strategies of CpG derivatives for PET-based screening. (B) Representative coronal PET images showing FVB mice at 6 h post s.c. injection of CpG derivatives at tail base. […] White arrow heads mark IN and AX LNs. (C) Amounts of CpG derivatives in IN and AX LNs quantified from 3D-reconstructed, decay-corrected PET images (n=4-8).
Coronal (coro), transverse (trans), and 3D projection (proj) of PET images showing efficient LN-targeted delivery and whole-body distribution of MH2C over 3 days post injection. White arrow heads mark IN and AX LNs. The scale bar for 3D proj was based on the maximal signal intensity in each image. (Injection dose: 120 μCi; ID: injection dose).
Mice were s.c. injected with ^64Cu-radiolabeled AlbiCpG, followed by PET imaging to reveal its 3D biodistribution in mice over 3 days (FIG. 5B). […] Based on PET, decay-corrected radioactivity in draining inguinal (IN) LNs, and axillary (AX) LNs. LNs were quantified as the percentage of injection dose (% ID) (FIG. 5C).

## MEB-Trp2 (albumin-binding conjugate of maleimide-functionalized truncated Evans Blue with Trp2 peptide bearing an N-terminal cysteine) (from UniProt P29812 180-188)
Albumin [1]
  Kd: 790 nM

## AlbiTrp2: Trp2 peptide with N-terminal cysteine conjugated with MEB (CSVYDFFVWL)
[2]
  water solubility: increased
Albumin [3]
  Kd: 790 nM
[4]
  AUC in LNs relative to free Trp2: 91 fold
[5]
  delivery to LNs in tumor-bearing mice: efficiently delivered to LNs except tumor draining axillary LNs

## AlbiAdpgk: MEB conjugate of Adpgk neoantigen ASMTNMELM (SEQ ID NO: 86) of MC38 (also: MEB (albumin-binding) conjugate, site not given here)
[6]; PET
  amount trapped at the injection sites relative to IFA(Adpgk): Significantly less
[6]; within 2 days
  AUC in IN and AX LNs relative to Adpgk or IFA(Adpgk): 43 fold
[2]; relative to unconjugated peptide
  water solubility: improved

## MEB-GpC: MEB conjugate of control GpC ODN (TCCATGAGCTTCCTGAGCTT, SEQ ID NO: 34) (DNA, backbone and methylation of C not given here; further chemistry not fully specified)
[7]; BMDCs and RAW264.7 macrophages
  secretion of proinflammatory factors (ELISA): did not stimulate these cells significantly more potently than the background
[7]; RAW264.7 macrophages, alone or premixed with HSA
  immunostimulatory activity (ELISA of culture medium): inactive for immunostimulation

## CpG 1826
[8]
  % ID/g in inguinal LNs: 8.3±4.7 % ID/g
  radioactivity density in axillary LNs: 3.2±1.2 %/g
[9]
  accumulation / retention in LNs: no apparent accumulation in any of the LNs
